Article PMC10241913

Assays:
[1] = biological target: UBXD1 UBX extension (269–330), for fluorescence anisotropy (human) (UniProt Q9BZV1); assay: fluorescence polarisation; fluorescence anisotropy; Atto594-labeled UBXD1 proteins, p97 constructs titrated; 50 mM NaKPi pH 7.5, 25 °C; all fitted with stoichiometry n = 1
[2] = biological target: ubiquitin (wild type) (UniProt P0CG48); assay: NMR titration; 1H-15N-HSQC titrations of ubiquitin with UBXD1, UBXD1-eUBX R305A, PUB or the UBX extension; 50 mM sodium potassium phosphate pH 7.5, 25 °C

Kd [1]	Kd [2]	Substance
191 µM	–	p97-wt (1–806) (from UniProt P55072 1-806) (enzyme)
–	155 µM	UBXD1-eUBX R305A (from UniProt Q9BZV1 1-441) (domain or fragment)
